# Target: T1, filamin-A (human, UniProt P21333 2-2647)
# T1 construct: whole, on cells; Endogenous filamin-A of human cell lines; No purified filamin-A was used; also called FLNA; FLNa
# Assay: flow cytometry, surface staining of SKNAS (human neuroblastoma) cells, 2 µg primary antibody
# Experimental: B411 surface staining on several different cell types was conducted. Cells were plated at a concentration of 0.5-1.0 million cells per well, and incubated overnight. Cells were then lifted from the wells, washed, and resuspended in flow cytometry media with 2 μg of primary antibody for 1 hour on ice. Cells were washed and incubated with the secondary antibody (5 μg/ml) for 30 minutes on ice. Cells were washed again and analyzed by flow cytometry.
# T1 sequence (P21333 2-2647): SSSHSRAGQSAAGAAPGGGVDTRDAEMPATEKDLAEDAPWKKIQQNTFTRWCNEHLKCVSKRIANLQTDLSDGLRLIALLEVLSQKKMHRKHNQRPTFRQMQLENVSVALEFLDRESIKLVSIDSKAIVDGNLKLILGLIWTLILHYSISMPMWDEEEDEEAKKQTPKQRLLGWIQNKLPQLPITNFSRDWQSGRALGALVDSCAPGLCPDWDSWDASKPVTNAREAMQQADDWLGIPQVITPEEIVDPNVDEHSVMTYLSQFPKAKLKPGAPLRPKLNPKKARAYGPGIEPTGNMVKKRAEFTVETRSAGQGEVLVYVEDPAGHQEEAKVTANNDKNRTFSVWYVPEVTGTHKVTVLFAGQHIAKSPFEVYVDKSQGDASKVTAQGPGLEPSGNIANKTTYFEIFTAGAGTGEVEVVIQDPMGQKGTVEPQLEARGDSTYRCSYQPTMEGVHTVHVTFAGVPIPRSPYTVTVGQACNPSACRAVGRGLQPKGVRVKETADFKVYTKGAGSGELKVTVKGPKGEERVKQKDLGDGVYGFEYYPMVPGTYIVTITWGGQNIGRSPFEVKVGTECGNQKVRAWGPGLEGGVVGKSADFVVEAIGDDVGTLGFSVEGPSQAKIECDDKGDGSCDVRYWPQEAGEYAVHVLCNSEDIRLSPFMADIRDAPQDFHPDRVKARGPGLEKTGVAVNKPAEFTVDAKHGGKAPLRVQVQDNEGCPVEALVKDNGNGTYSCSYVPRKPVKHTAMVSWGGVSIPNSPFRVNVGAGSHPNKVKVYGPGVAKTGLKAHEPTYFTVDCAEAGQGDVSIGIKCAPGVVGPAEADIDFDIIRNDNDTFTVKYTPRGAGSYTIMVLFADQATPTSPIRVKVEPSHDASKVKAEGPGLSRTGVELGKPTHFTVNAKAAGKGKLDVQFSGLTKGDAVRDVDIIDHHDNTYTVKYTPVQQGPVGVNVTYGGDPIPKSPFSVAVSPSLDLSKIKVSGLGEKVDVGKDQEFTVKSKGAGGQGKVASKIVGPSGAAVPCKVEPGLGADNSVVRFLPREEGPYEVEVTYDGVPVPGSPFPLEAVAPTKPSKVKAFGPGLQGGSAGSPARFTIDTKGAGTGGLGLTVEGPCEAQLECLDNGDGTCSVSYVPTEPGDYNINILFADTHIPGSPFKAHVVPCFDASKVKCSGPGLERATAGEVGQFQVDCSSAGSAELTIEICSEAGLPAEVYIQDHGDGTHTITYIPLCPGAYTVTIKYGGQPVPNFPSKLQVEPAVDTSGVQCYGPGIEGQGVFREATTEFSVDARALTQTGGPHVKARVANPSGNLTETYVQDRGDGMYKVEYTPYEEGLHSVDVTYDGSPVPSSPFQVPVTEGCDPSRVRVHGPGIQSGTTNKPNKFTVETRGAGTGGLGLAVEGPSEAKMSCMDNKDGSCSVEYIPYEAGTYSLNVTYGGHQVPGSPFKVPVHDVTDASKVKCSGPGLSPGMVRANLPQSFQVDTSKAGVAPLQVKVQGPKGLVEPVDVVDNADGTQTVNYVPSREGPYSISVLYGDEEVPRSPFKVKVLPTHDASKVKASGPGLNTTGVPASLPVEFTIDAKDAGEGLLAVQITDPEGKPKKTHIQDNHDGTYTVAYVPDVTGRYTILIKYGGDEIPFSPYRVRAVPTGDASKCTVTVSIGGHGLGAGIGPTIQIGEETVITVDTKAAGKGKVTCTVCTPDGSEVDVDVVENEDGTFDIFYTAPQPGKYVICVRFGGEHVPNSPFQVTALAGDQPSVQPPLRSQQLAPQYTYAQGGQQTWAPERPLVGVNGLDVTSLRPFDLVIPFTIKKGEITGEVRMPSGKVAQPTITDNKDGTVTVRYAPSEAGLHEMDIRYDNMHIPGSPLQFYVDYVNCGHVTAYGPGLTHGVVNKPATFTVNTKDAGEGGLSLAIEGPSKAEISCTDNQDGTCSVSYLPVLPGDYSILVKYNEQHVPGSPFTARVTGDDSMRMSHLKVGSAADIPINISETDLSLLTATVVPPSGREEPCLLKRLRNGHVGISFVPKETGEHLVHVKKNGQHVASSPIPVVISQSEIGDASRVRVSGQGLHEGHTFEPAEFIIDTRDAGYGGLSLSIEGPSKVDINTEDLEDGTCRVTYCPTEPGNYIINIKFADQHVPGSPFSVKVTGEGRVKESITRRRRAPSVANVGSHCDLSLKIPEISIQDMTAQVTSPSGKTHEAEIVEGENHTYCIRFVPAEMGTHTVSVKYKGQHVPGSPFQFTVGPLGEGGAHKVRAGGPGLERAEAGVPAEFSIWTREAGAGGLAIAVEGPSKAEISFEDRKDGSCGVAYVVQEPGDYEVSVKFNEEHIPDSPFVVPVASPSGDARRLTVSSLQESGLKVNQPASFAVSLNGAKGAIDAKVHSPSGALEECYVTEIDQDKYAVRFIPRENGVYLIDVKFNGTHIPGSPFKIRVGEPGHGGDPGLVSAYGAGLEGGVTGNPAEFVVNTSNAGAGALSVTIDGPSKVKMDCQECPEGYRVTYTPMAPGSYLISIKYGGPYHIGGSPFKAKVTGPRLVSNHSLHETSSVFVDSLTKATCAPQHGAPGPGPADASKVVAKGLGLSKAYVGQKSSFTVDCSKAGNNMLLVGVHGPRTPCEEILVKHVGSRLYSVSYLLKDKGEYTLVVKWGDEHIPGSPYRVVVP
binder,measurement,value
"anti-filamin-A antibody B411 (antibody, human IgG1, kappa, V domains shown, also called B4111) VH: EVKLVESGGGLVQPGGSLKLSCAASGFTFSSYTMSWVRQTPEKRLEWVAYISNGGGSTYYPDTVKGRFTISRDNAKNTLYLQMSSLKSEDTAMYYCASDGIIRPFAYWGQGTLVTVSA VL: DIVMTQSHKFMSTSVGDRVSITCKASQDVSLDVAWYQQKPGQSPKLLIYSASHRYTGVPDRFTGSGSGTDFTFTISGVQAEDLAVYFCQQHYSTPLTFGAGTKLELKR",binding result,binds

# Source: patent US20220025025A1 (IBEX BIOSCIENCES, published 2022)
